# Experimental data reported in paper PMC10106861.
# Experiments:
# [1] = target: GhWRKY41 full length as GhWRKY41-NLuc and GhWRKY41-CLuc, expressed in cotton protoplasts (Gossypium hirsutum); assay: split reporter
# [2] = target: GhWRKY41-Myc fusion protein (Gossypium hirsutum); assay: immunoprecipitation and Western blot
fold luciferase activity (after V. dahliae supernatant) [1],fold luciferase activity (after chitin solution) [1],fold luciferase activity over the negative control (normal condition) [1],stoichiometry N [2],Substance
23 fold,27 fold,10 fold,–,"GhWRKY41 full length as GhWRKY41-NLuc and GhWRKY41-CLuc, expressed in cotton protoplasts (natural protein)"
–,–,–,2,GhWRKY41-Myc fusion protein (natural protein)
